From PMC10871540

Assays:
[1] = molecular target: biotinylated UNC-6ΔC (C. elegans) (UniProt P34710); assay: SPR
[2] = molecular target: UNC-5 ECD displayed on yeast (C. elegans); assay: flow cytometry on cells
[3] = molecular target: UNC-5 N188K ectodomain on yeast (C. elegans); assay: flow cytometry on cells
[4] = molecular target: UNC-5 N18K ectodomain on yeast (C. elegans); assay: flow cytometry on cells
UNC-6ΔC (C. elegans) = UNC-6ΔC (C. elegans) (UniProt P34710); assay: SEC
UNC-6ΔC (C. elegans), sequence (P34710 22-461, stated change not applied): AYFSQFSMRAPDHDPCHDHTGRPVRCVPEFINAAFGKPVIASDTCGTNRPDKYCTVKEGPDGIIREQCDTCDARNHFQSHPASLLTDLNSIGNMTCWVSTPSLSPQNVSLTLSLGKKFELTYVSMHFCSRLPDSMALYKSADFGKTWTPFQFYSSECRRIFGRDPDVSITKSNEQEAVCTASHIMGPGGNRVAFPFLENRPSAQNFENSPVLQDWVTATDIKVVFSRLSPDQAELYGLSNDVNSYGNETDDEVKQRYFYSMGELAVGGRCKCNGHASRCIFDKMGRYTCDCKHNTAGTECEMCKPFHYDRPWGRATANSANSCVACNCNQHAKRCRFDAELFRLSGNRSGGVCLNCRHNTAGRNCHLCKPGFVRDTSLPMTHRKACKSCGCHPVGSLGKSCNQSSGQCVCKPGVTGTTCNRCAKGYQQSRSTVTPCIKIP

biotinylated UNC-6ΔC, sequence (P34710 22-461, stated change not applied): as above
biotinylated UNC-6ΔC (C. elegans), sequence (P34710 22-461, stated change not applied): as above
UNC-5 ECD displayed on yeast (C. elegans), sequence (Q26261 whole entry, the tested form may be a part): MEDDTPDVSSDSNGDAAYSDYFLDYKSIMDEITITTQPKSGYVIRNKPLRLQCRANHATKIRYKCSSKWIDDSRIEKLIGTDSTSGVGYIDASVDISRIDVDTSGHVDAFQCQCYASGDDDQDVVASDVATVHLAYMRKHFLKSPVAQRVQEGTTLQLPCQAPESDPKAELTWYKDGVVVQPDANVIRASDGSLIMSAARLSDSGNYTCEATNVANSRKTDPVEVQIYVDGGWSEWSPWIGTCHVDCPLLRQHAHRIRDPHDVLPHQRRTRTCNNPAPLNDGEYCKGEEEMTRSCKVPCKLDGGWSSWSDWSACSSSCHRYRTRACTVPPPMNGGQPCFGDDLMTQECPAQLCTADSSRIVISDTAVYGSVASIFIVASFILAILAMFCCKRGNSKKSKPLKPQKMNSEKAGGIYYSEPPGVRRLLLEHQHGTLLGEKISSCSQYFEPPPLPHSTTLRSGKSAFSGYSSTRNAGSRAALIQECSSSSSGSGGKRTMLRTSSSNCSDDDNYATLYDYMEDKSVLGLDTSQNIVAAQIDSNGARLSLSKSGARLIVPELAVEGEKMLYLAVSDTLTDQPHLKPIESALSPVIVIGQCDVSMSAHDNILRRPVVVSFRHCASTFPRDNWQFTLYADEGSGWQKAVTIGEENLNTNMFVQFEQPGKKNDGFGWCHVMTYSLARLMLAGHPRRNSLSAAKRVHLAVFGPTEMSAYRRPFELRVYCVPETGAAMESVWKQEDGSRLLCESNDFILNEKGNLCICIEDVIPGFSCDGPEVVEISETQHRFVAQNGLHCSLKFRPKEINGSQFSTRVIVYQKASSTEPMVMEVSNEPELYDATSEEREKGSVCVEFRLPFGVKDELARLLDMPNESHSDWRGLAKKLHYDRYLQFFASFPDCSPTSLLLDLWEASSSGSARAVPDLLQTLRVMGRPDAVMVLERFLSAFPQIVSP

Row | KD with heparin [1] | fold loss of affinity against WT UNC-5 [1] | KD with heparin [2] | Kd [3] | Kd [4] | stoichiometry N (UNC-6ΔC (C. elegans)) | Kd [1] | Substance
1 | 50 to 100 µM | 2 fold | – | – | – | – | – | UNC-5 ECD R17E R70E (receptor)
2 | – | – | 0.035 µM | 0.0164 µM | 0.0082 µM | – | – | biotinylated UNC-6ΔC (from UniProt P34710 22-461) (ligand)
3 | 1.2 µM | – | – | – | – | 1 | 46 µM | UNC-5 ECD (receptor)
